Test: soluble on expression in E. coli; label from the status in PepcDB or PDB records

Soluble on expression in E. coli, not soluble:
MGSDKIHHHHHHMAAPAGGGGSAVSVLAPNGRRHTVKVTPSTVLLQVLEDTCRRQDFNPSEYDLKFQRTVLDLSLQWRFANLPNNAKLEMVPVSRSREGPENIVRIAFQLDDGSRLQDAFCSRQTLWELLSHFAQTRERLQQLGEKTPVCVYMRNEVTGRAALQNTTLQSLGLTGGSATIRFVIKQCDTAGKQESIAVRSKAPGSPVSSLSADQASSSTLLPLNSGEFSRGDLNHEGDANTSGTGLEGGPKPTDAQTKQSTSEPASAPFVPFSGGGQRLGGPSASLRPLTSPSANSSKSFSGPGGPSKPKKPKPGEEPQQEPEPPVDRDPVVYHPDLEDLLQPWPAEVPDEFFEVTVDDVRRRLAQLKSERKRLEEAPLVTKAFREAQMKEKLERYPKVALRVLFPDRYILQGFFRPSETVGDLRDFVRSHLGNPELSFYLFIAPPKMVLDDHTLTLFQANLFPAALVHFGAEEPTGLYLEPGLLEHTVSPSTADVLVARCMSRASGSPPLLPAPDPVSLESEPIAEDGALGPPEPIQGTAQPVKRSLGKVPKWLKLPASKR
MGSDKIHHHHHHMAATLEAVPSTKTADKKTEISEADAARELVRMAKEQGLSLTGPDGLLKQLTKTVIETALDEEMTEHLGYEKHDSAGKQTANSRNGVRPKTVLTETTGPVEVDVPRDRAGTFEPVIVKKRQRRLTGVDEMVLSLYAKGLTTGEISAHFAEIYGASVSKETVSRITDRVLEEMAAWQNRPLDEVYAAIFIDAIVVKVRDGQVANRPIYAAIGVTLEGEKDILGLWAGTGGEGAKFWMSVLTDIKNRGVKDTFFLVCDGLKGLPEVVTNVWPLATVQTCIIHLIRNTFRLASRQDWDALKRDVKPIYTAPNAEAARTALEELAERWGRKYGAIVRLWENAWEELIPFLDYDVEIRRVICSTNAIESLNARYRRAVKARGHLPTEQAALKCLYLVTRSLDPTGAGKTRWAVRWKPALNAFAITFSDRFPAAESY
MGSDKIHHHHHHMADPQTLDKIIDKTLDTVGKSREQIFEISEQSRNEYVSLEQELQEVRMKVAEIIDQSDRAEVHARFARNRLAEVSKQFHRYSNEEIRKVYEQANELQVKLALLQQEEQQLRDRRDAIERRLLNLKDTIERAEELVGQMTVVYNFLTGDLRQVGEALEDAREKQAFGLQIIQAQEEERRKLSREIHDGPAQMMANVLLRSELVERIYHDKGIDEALKEIRDLRKMVKSSLAEVRRIIYDLRPMALDDLGLIPTLKKYVKTFEEHTGIFVDFKHIGKGERFPEHVEIALFRLVQEALQNTRKHAKASHVHVKIEEQKTKFTVVIKDNGKGFDQTEKKEGSFGLVGMKERVNMLKGQLVIRTKPNDGTTIIISIPITTEE
MGSDKIHHHHHHMAEAGTLAVLVPEITIEELFTAQGADLSRRSPRQDMVDLNIKLLAEARELAKVSIIWQEVKVLGSQQQELYLEGGLTLRGSLLPKVLGPAESAVLFAMTIGEGIDERVKEYTHQGKTLEAFILDAAGSAILAKAAYHAISELAGLYKEKQLDTTFSLGPGHSYWKGLEDVRTIIDYLKGEQIGISLTDSNLMLPKKSIAMVMGVGSNLPDFKGKTHCDFCHLKGSCTMRELGVNNC
MGSDKIHHHHHHMAKEKKSRDTQKKIFVLDTSVIIYDHNAVKNFEEHDLAIPITVLEELDNFKKGNDIKNFEAREFTRFLDELAADSASLQDWIQLEGRDKGKLKVIMNTHGTKETDAEKIFDDRKNDHKILNAAISVQAENPDKKVILVSKDINLRLKAKSLNIPSEDYNTGKVKDIDLLYTGHTTIENVAPEKINELYEKGYCDIDAIPEQDVSKNHYYILKSVKSSALAYYNPVDKRLEHVGKTPAYGIKPRNAEQAFAIHAVLDPHIKLVSIQGVAGTGKTLIALAATLEQRKDFKQIFLARPIVPLSNKDIGYLPGDIKSKLNPYMEPLFDNLKFIQNQFNETDQDYQRITDMVNKEKLVITPLAYIRGRSLSNIVFIVDEAQNLTPHEVKTIISRAGENCKIIFTGDIFQIDTPYLDSESNGLSYLIDRLKNQDLYAHITLEKGERSELANLANELL

Reference: the DeepSol protein solubility set
